Values of other authors as cited in US20250197888A1, “NOVEL RECOMBINANT VECTOR AND USE THEREOF” (CELL & BRAIN CO., LTD., priority 2022, published 2025).

Conditions: A168H mutant; Balzarini et al., 2006

## mutant HSV-TK: HSV thymidine kinase in which alanine at position 168 is substituted with histidine
  kinase activity relative to wild-type HSV-TK: about 4 times
